Laboratory results from US20220387586A1 (Hoffmann-La Roche, published 2022).

T1: biotinylated-Lag3 (UniProt P18627 23-450, limits assumed, biotinylated)
T1 construct: Probably a human LAG3 ECD construct; also called Lag3 (MHCII/ELISA)
T1 sequence (looked up): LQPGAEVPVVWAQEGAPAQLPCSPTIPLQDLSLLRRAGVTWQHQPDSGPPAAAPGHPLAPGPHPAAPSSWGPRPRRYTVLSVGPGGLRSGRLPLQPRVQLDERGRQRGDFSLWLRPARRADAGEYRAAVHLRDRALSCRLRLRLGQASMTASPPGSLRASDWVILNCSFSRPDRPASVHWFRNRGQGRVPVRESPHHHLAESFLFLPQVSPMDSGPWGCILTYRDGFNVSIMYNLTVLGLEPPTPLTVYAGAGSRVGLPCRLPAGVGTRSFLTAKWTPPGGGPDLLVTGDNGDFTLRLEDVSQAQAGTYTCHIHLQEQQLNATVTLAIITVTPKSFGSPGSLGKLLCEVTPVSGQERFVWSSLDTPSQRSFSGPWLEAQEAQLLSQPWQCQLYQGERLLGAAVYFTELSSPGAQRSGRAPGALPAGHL

T2: LAG3 on cells (recombinant CHO cells expressing Lag3) (human, UniProt P18627 29-525)
T2 construct: The cell ELISA paragraphs say only 'Lag3'; also called CHO-LAG3; Lag3 cells
T2 sequence: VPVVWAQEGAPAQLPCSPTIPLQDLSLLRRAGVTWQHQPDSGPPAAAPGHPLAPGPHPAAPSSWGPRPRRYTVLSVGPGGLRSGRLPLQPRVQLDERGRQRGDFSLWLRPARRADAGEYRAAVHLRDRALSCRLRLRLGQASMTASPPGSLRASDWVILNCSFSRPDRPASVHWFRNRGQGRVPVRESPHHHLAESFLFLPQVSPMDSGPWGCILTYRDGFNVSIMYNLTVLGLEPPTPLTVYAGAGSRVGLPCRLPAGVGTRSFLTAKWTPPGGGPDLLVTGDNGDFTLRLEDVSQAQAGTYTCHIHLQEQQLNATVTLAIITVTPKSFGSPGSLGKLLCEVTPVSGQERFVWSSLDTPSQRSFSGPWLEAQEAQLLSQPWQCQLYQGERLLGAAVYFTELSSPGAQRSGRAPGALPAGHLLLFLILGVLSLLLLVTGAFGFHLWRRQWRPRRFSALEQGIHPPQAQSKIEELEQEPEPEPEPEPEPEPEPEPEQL

T3: recombinant Human LAG-3 Fc Chimera Protein (R&D Systems, 2319-L3) (human, UniProt P18627 29-450)
T3 construct: Bought protein; also called huLAG3; not shown: Fc part of the chimera
T3 sequence: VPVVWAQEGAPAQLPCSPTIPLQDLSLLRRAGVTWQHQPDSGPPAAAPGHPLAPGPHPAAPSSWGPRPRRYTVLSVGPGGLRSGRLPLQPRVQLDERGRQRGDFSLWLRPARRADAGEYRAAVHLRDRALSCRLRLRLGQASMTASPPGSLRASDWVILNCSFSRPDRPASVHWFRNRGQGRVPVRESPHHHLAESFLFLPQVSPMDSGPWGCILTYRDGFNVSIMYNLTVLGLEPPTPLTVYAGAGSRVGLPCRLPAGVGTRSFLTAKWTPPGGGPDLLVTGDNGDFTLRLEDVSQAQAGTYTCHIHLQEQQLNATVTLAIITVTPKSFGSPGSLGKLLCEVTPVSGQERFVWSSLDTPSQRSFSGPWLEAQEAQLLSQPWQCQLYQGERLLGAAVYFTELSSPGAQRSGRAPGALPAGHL


Experiments:
[1] = molecular target: T1, biotinylated-Lag3; assay: ELISA, inhibition of biotinylated-Lag3 binding to MHC-II on A375 cells (competitor MHC-II)
[2] = molecular target: T2, LAG3 on cells (recombinant CHO cells …); assay: cell ELISA on recombinant CHO cells expressing Lag3 (rel. EC50)
[3] = molecular target: T4, biotinylated PD1-ECD-AviHis (human, UniProt Q15116 25-170, biotinylated); assay: ELISA on coated biotinylated PD1-ECD-AviHis (rel. EC50)
T4 construct: also called huPD1; hu PD1; not shown: Avi-His tag
T4 sequence (Q15116 25-170): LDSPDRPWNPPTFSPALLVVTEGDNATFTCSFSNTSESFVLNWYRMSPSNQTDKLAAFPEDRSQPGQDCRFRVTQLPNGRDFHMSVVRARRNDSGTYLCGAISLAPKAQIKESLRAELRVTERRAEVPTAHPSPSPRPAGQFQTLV
Description: After washing (3×90 μl/well with PBST-buffer) 25 μl/well goat-anti-human H+L-POD (JIR, JIR109-036-098) was added in 1:5000 dilution and incubated at RT for 1 h on a shaker. After washing (3×90 μl/well with PBST-buffer) 25 μl/well of TMB substrate (Roche, 11835033001) was added and incubated until OD 2-3. Measurement took place at 370/492 nm.

[4] = molecular target: T3, recombinant Human LAG-3 Fc Chimera …; assay: ELISA on coated Human LAG-3 Fc Chimera (rel. EC50)
In short: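 Wells blocked 1 h at RT in PBS + 2% BSA + 0.05% Tween 20; bound antibody detected with goat anti-human Ig κ-HRP (1:2000, 1 h RT), then TMB substrate for 2-10 min. Absorbance read at 370/492 nm.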

[5] = molecular target: PD1 on PD1+LAG3+ human U2OS cells (UniProt Q15116 25-288); assay: cell-based or functional assay
Chain of PD1 on PD1+LAG3+ human U2OS cells (Q15116 25-288): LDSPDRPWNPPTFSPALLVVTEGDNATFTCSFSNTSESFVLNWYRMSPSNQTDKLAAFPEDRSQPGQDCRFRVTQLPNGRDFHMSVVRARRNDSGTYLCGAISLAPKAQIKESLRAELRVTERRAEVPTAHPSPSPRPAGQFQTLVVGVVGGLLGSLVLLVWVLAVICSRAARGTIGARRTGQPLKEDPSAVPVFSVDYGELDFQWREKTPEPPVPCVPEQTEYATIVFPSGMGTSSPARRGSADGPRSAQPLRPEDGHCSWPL

| IC50 [1] [nM] | EC50 [2] [nM] | EC50 [3] [nM] | EC50 [4] [nM] | EC50 [pM], dimerization binding assay (chemoluminescence) [5] [pM] | Binder |
| --- | --- | --- | --- | --- | --- |
| 1.11 | 0.23 | 0.07 | 0.18 | 41 | PD1/LAG3 0927 (bispecific antibody, human IgG1, kappa, L234A L235A, 1+1 CrossMAb Vh-VL, knobs into holes, IgG1 PGLALA) heavy 1: not shown heavy 2: EVQLLESGGGLVQPGGSLRLSCAASGFIFDDYTMNWVRQAPGKGLEWVAVISWDGGGTYYTDSVKGRFTISRDDFKNTLYLQMNSLRAEDTAVYYCAKGLTDTTLYGSDYWGQGTLVTVSSASTKGPSVFPLAPSSKSTSGGTAALGCLVEDYFPEPVTVSWNSGALTSGVHTFPAVLQSSGLYSLSSVVTVPSSSLGTQTYICNVNHKPSNTKVDEKVEPKSCDKTHTCPPCPAPEAAGGPSVFLFPPKPKDTLMISRTPEVTCVVVDVSHEDPEVKFNWYVDGVEVHNAKTKPREEQYNSTYRVVSVLTVLHQDWLNGKEYKCKVSNKALGAPIEKTISKAKGQPREPQVCTLPPSRDELTKNQVSLSCAVKGFYPSDIAVEWESNGQPENNYKTTPPVLDSDGSFFLVSKLTVDKSRWQQGNVFSCSVMHEALHNHYTQKSLSLSPGK light 1: EVQLLESGGGLVQPGGSLRLSCAASGFSFSSYTMSWVRQAPGKGLEWVATISGGGRDIYYPDSVKGRFTISRDNSKNTLYLQMNSLRAEDTAVYYCVLLTGRVYFALDSWGQGTLVTVSSASVAAPSVFIFPPSDEQLKSGTASVVCLLNNFYPREAKVQWKVDNALQSGNSQESVTEQDSKDSTYSLSSTLTLSKADYEKHKVYACEVTHQGLSSPVTKSFNRGEC light 2: not shown |
| 0.72 | 0.2 | 0.06 | 0.07 | 76 | PD1/LAG3 0799 (bispecific antibody, human IgG1, kappa, L234A L235A, 1+1 CrossMAb Vh-VL, knobs into holes, IgG1 PGLALA) heavy 1: not shown heavy 2: EVQLVESGGGLVQPGGSLRLACAASGFTFSDYAMSWVRQAPGKGLEWVSGIDNSGYYTYYTDSVKGRFTISRDDVKNTLYLQMNSLRAEDTAVYLCTKTHSGLIVNDAFDIWGQGTMVTVSSASTKGPSVFPLAPSSKSTSGGTAALGCLVEDYFPEPVTVSWNSGALTSGVHTFPAVLQSSGLYSLSSVVTVPSSSLGTQTYICNVNHKPSNTKVDEKVEPKSCDKTHTCPPCPAPEAAGGPSVFLFPPKPKDTLMISRTPEVTCVVVDVSHEDPEVKFNWYVDGVEVHNAKTKPREEQYNSTYRVVSVLTVLHQDWLNGKEYKCKVSNKALGAPIEKTISKAKGQPREPQVCTLPPSRDELTKNQVSLSCAVKGFYPSDIAVEWESNGQPENNYKTTPPVLDSDGSFFLVSKLTVDKSRWQQGNVFSCSVMHEALHNHYTQKSLSLSPGK light 1: EVQLLESGGGLVQPGGSLRLSCAASGFSFSSYTMSWVRQAPGKGLEWVATISGGGRDIYYPDSVKGRFTISRDNSKNTLYLQMNSLRAEDTAVYYCVLLTGRVYFALDSWGQGTLVTVSSASVAAPSVFIFPPSDEQLKSGTASVVCLLNNFYPREAKVQWKVDNALQSGNSQESVTEQDSKDSTYSLSSTLTLSKADYEKHKVYACEVTHQGLSSPVTKSFNRGEC light 2: not shown |
